In patent US20250361296A1 (BIOCYTOGEN PHARMACEUTICALS BEIJING, published 2025):

T1: human SIGLEC10 on CHO-S-hSIGLEC10 cells (human, UniProt Q96LC7 17-550)
T1 sequence: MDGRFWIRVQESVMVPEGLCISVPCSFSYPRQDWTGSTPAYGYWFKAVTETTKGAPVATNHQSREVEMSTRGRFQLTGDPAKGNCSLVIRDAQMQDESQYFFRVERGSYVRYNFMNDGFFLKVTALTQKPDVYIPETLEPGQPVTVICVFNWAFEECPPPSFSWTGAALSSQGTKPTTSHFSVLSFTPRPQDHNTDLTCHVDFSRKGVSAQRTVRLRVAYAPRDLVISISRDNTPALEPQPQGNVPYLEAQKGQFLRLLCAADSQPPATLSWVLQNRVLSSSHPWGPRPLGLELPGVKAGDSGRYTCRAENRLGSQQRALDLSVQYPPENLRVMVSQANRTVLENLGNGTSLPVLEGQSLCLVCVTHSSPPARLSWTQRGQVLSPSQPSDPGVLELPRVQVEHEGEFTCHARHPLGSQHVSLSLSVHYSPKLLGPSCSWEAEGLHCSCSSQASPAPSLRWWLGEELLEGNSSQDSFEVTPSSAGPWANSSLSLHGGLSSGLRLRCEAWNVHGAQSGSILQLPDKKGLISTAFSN

T2: human SIGLEC16 on CHO-S-hSIGLEC16 cells (human, UniProt A6NMB1 17-434)
T2 chain: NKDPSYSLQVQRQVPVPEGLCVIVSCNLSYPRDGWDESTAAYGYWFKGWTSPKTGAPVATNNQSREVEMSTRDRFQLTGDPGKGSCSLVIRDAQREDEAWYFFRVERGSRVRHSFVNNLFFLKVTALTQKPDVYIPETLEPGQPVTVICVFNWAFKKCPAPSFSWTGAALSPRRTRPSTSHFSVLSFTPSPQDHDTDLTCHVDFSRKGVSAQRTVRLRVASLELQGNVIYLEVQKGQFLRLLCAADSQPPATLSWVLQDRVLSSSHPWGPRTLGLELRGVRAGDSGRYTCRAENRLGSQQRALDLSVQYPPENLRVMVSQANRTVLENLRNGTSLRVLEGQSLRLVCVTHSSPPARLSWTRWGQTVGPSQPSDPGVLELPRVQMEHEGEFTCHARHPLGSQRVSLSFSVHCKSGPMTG

T3: human SIGLEC5 on CHO-S-hSIGLEC5 cells (human, UniProt O15389 17-441)
T3 sequence: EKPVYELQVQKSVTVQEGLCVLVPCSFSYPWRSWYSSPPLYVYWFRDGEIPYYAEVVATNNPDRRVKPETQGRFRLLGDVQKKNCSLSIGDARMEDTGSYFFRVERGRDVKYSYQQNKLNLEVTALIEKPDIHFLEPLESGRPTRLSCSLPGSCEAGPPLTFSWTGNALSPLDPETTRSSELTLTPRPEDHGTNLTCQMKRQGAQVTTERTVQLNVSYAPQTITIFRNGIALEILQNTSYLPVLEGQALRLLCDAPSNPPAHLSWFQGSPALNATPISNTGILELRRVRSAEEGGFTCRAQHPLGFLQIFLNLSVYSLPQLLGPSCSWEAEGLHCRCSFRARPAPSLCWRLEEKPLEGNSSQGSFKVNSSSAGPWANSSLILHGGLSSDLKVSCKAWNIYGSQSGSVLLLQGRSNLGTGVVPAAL


Tests used:
Experiment in all cases: flow cytometry, CHO-S cells expressing the target; for Percentage of Positive Cells: test concentration or dose not given here
[1] = molecular target: T1, human SIGLEC10 on CHO-S-hSIGLEC10 cells
Protocol: (§1) CHO-S-hSIGLEC15 cells, CHO-S-mSIGLEC15 cells, CHO-S-fasSIGLEC15 cells or CHO-S-dSIGLEC15 cells were transferred to a 96-well plate at a density of 5×10⁴ cells/well respectively. Serially diluted sample anti-SIGLEC15 antibodies were added to the 96-well plate, and incubated at 4° C. for 30 min. Then, the cells were incubated with the secondary antibody anti-hIgG-Fc-Alex Flour 647 (RL1-H) (Jackson ImmunoResearch Laboratories, Inc., 109-606-170) at 4° C. in the dark for 15 minutes before flow cytometry analysis.
(§2) Another similar experiment was performed to determine whether the anti-SIGLEC15 antibodies can bind with other SIGLEC family proteins. CHO-S-hSIGLEC1 cells (expressing hSIGLEC1, SEQ ID NO: 49)), CHO-S-hSIGLEC2 cells (expressing hSIGLEC2, SEQ ID NO: 50), CHO-S-hSIGLEC4 cells (expressing hSIGLEC4, SEQ ID NO: 51), CHO-S-hSIGLEC5 cells (expressing hSIGLEC5, SEQ ID NO: 52), CHO-S-hSIGLEC6 cells (expressing hSIGLEC6, SEQ ID NO: 53), CHO-S-hSIGLEC7 cells (expressing hSIGLEC7, SEQ ID NO: 54), CHO-S-hSIGLEC8 cells (expressing hSIGLEC8, SEQ ID NO: 55), CHO-S-hSIGLEC9 cells (expressing hSIGLEC9, SEQ ID NO: 56), CHO-S-hSIGLEC10 cells (expressing hSIGLEC10, SEQ ID NO: 57), CHO-S-hSIGLEC11 cells (expressing hSIGLEC11, SEQ ID NO: 58), CHO-S-hSIGLEC12 cells (expressing hSIGLEC12, SEQ ID NO: 59), CHO-S-hSIGLEC14 cells (expressing hSIGLEC14, SEQ ID NO: 60) or CHO-S-hSIGLEC16 cells (expressing hSIGLEC16, SEQ ID NO: 61) were used.

[2] = molecular target: human SIGLEC7 on CHO-S-hSIGLEC7 cells (human, UniProt Q9Y286 19-353)
Protocol: as §1, §2

[3] = molecular target: human SIGLEC6 on CHO-S-hSIGLEC6 cells (human, UniProt O43699 27-347)
Protocol: as §1, §2

[4] = molecular target: T2, human SIGLEC16 on CHO-S-hSIGLEC16 cells
Protocol: as §1, §2

[5] = molecular target: T3, human SIGLEC5 on CHO-S-hSIGLEC5 cells
Protocol: as §1, §2

[6] = molecular target: human SIGLEC9 on CHO-S-hSIGLEC9 cells (human, UniProt Q9Y336 18-348)
Protocol: as §1, §2

[7] = molecular target: human SIGLEC1 on CHO-S-hSIGLEC1 cells (human, UniProt Q9BZZ2 20-1641)
Protocol: as §1, §2

Chain of human SIGLEC7 on CHO-S-hSIGLEC7 cells (Q9Y286 19-353): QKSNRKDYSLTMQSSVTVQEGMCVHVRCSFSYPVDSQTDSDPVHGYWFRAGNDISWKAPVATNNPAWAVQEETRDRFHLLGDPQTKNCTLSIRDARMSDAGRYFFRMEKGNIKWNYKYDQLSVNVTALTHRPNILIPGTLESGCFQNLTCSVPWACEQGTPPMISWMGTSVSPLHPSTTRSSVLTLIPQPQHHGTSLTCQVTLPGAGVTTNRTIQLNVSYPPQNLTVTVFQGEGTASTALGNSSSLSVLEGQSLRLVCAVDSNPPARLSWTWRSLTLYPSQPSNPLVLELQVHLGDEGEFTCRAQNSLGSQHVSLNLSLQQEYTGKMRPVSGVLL
Chain of human SIGLEC1 on CHO-S-hSIGLEC1 cells (Q9BZZ2 20-1641): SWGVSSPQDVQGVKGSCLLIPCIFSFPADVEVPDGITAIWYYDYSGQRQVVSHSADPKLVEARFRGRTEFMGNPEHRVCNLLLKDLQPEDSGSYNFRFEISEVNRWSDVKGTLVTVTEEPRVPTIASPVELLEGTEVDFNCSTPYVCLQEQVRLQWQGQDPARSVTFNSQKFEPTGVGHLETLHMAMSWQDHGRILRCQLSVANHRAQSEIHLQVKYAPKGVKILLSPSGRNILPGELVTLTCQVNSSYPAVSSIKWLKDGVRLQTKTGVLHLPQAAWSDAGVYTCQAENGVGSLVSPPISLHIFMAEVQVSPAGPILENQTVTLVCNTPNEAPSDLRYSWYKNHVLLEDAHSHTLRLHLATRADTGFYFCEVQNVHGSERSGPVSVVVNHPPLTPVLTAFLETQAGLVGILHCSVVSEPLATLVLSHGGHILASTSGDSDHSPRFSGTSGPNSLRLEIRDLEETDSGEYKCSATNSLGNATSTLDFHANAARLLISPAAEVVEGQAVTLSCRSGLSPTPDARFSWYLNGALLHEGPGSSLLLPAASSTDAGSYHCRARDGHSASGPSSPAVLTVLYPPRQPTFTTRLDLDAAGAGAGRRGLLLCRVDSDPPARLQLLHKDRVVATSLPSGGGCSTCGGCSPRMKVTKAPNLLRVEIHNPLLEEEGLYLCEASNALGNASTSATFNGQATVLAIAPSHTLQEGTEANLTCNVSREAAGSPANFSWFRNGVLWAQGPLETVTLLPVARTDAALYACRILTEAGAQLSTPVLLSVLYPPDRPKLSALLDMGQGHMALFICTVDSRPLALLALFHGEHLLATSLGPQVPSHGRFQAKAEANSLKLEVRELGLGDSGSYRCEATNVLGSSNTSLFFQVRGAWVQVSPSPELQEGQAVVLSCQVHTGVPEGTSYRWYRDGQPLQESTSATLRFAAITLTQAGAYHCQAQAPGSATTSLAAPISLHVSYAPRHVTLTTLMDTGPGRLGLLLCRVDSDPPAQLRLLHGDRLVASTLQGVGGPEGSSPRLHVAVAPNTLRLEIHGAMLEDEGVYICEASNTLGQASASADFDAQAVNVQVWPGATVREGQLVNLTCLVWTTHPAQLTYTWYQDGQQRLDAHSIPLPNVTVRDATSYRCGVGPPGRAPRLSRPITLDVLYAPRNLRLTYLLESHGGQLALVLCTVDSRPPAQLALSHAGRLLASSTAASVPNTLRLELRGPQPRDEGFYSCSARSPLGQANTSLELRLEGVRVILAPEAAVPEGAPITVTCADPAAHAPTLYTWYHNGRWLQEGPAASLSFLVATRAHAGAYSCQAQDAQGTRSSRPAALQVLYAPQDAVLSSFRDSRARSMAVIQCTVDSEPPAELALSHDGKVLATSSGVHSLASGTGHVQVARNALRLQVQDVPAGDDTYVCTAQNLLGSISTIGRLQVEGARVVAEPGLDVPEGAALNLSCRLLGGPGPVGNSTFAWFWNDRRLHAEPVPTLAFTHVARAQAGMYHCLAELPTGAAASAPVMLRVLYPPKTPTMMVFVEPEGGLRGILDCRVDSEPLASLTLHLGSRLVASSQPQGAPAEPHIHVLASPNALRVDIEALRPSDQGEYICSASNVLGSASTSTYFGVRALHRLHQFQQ
Chain of human SIGLEC9 on CHO-S-hSIGLEC9 cells (Q9Y336 18-348): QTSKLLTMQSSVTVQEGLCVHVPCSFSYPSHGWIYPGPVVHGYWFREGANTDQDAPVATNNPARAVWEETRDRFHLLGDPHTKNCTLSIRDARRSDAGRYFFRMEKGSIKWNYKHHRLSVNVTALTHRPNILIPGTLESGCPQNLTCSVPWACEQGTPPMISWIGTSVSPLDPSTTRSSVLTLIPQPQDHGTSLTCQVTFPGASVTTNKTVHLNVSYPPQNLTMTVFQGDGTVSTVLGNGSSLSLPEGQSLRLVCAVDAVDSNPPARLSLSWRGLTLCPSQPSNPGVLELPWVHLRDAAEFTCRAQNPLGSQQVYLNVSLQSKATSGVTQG
Chain of human SIGLEC6 on CHO-S-hSIGLEC6 cells (O43699 27-347): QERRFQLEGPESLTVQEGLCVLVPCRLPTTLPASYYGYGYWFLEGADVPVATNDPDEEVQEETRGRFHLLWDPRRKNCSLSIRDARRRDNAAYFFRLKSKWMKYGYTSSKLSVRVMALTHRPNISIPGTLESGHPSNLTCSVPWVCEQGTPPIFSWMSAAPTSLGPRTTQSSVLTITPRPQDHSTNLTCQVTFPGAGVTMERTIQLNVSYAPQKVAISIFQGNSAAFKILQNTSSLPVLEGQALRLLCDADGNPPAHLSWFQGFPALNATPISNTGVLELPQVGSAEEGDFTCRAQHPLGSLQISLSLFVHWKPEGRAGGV

Percentage of Positive Cells [1]	binding result [1]	Percentage of Positive Cells [2]	binding result [2]	Percentage of Positive Cells [3]	binding result [3]	Percentage of Positive Cells [4]	binding result [4]	Percentage of Positive Cells [5]	binding result [5]	Percentage of Positive Cells [6]	binding result [6]	Percentage of Positive Cells [7]	binding result [7]	Binder
1.5%	no binding	0.4%	no binding	0.5%	no binding	0.2%	no binding	0.2%	no binding	0.1%	no binding	0.1%	no binding	anti-SIGLEC15 antibody 10C9 (antibody, human IgG1, V domains shown) VH: QVQLVQSGAEVKKPGATVKVSCKASGYTFTNYGFSWVRQAPGQGLEWMGWINTYNDNTNYAQKFQGRVTMTTDTSTSTAYMELRSLRSDDTAVYYCARDGLWFGELPHYFDYWGQGTLVTVSS VL: DIQLTQSPLSSPVTLGQPASISCRSSQSLVNSDGETFLSWLQQRPGQPPRLLIYKISNRFSGVPDRFSGSGAGTDFTLKISRVEAEDVGVYYCMQATQFPHTFGQGTKLEIK
1.4%	no binding	0.2%	no binding	0.7%	no binding	0.2%	no binding	0.2%	no binding	0.3%	no binding	0%	no binding	anti-SIGLEC15 antibody 10A7 (antibody, human IgG1, V domains shown) VH: EVQLVQSGGGLVQPGGSLRLSCAASGFTFSNYEMNWVRQAPGKGLEWISYISNSGSTIYYADSVKGRFTISRDDAKNSLYLQMNSLRAEDTAVYYCAREDYDSSGYYWFDPWGQGTPVTVSS VL: DIQLTQSPSSVSASVGDRVTITCRASQGISSWLAWYQQKPGKAPKLLIYAASSLQSGVPSRFSGSGSGTDFTLTINSLQPEDFATYYCQQTNSFPLTFGGGTKVEIK
1.6%	no binding	1%	no binding	1.5%	no binding	1.3%	no binding	7%	no binding	0.7%	no binding	1.1%	no binding	anti-SIGLEC15 antibody 23F4 (antibody, human IgG1, V domains shown) VH: QVQLQQWGAGLLKPSETLSLTCAVYGGSFSGYFWSWIRQPPGKGLEWIGEINHSGSTNYNPSLKSRVTLSVDTSKNQFSLKLSSVTAADTAVYYCAREGDSSSWGNWFDPWGQGTLVTVSS VL: EIVLTQSPGTLSLSPGERATLSCRASQSVSSSYLAWYQQKPGQAPRFLIYGASSRATGIPDRFSGSGSGTDFTLTISRLEPEDFAVYYCQQFGNSPLTFGGGTKVEIK
